Values of other authors as cited in PMC7545370.

Experiments:
KAP1 RBCC (Homo sapiens) = KAP1 RBCC (Homo sapiens) (UniProt Q13263)
Ubiquitin (Homo sapiens) = Ubiquitin (Homo sapiens) (UniProt P0CG48)

SMARCAD1 CUE1, sequence (Q9H4L7 154-202): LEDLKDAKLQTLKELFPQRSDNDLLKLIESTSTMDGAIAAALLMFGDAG
KAP1 RBCC (Homo sapiens), sequence (Q13263 62-379): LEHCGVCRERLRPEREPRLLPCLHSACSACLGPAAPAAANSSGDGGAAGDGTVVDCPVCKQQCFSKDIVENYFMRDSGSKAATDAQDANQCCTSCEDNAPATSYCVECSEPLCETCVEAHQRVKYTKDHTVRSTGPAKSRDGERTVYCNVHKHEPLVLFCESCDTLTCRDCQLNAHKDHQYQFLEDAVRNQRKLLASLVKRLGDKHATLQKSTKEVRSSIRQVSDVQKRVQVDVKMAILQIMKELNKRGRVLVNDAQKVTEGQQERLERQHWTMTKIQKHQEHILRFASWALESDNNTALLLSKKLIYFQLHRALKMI

Kd (KAP1 RBCC (Homo sapiens)): 0.158 µM
Kd (Ubiquitin (Homo sapiens)): 952 µM
Substance: SMARCAD1 CUE1 (from UniProt Q9H4L7)
